According to publication PMC6692503, “Short- and Long-Term Effects of UVA on Arabidopsis Are Mediated by a Novel cGMP Phosphodiesterase” (Current Biology, 2019):

Substrate: [H][C@@]12COP(=O)(O)O[C@@]1([H])[C@@H](O)[C@H](n1cnc3c(=O)[nH]c(N)nc31)O2
Experiment: phosphodiesterase assay kit (Biomol Green phosphate detection), Michaelis-Menten plot
Type: biochemical, Arabidopsis thaliana
Settings: 25 °C, 60 min, GST fusion, Figure 3 legend prints 0.2587 μM, substrate of the plot not named in the legend

B1: CN-PDE1 (AtCN-PDE1, PDE1, AtPDE1) (Arabidopsis thaliana) (protein)
chain: MAAKTMRKAEELVEKAMKGNDASHDAWHVWRVRDLALSIAREEGLSSNSDSMEIVELAALLHDIGDYKYIRDPSEEKLVENFLDDEGIEETKKTKILTIINGMGFKDELAGVALCESLPEFGVVQDADRLDAIGAIGIARCFTFGGSRNRVLHDPEIKPRTELTKEQYIKREEQTTINHFHEKLLKLKKLMKTEAGKRRAEKRHKFMEEYLKEFYEEWDGST
Km: 0.259 µM
